According to article PMC4101993 (Nature structural & molecular biology, 2014):

Target: the molecule itself
Assay: SEC-MALS

B1: Purified EttA (gel filtration with static light scattering) (natural protein, E. coli)
chain: MAQFVYTMHRVGKVVPPKRHILKNISLSFFPGAKIGVLGLNGAGKSTLLRIMAGIDKDIEGEARPQPDIKIGYLPQEPQLNPEHTVRESIEEAVSEVVNALKRLDEVYALYADPDADFDKLAAEQGRLEEIIQAHDGHNLNVQLERAADALRLPDWDAKIANLSGGERRRVALCRLLLEKPDMLLLDEPTNHLDAESVAWLERFLHDFEGTVVAITHDRYFLDNVAGWILELDRGEGIPWEGNYSSWLEQKDQRLAQEASQEAARRKSIEKELEWVRQGTKGRQSKGKARLARFEELNSTEYQKRNETNELFIPPGPRLGDKVLEVSNLRKSYGDRLLIDDLSFSIPKGAIVGIIGPNGAGKSTLFRMISGQEQPDSGTITLGETVKLASVDQFRDSMDNSKTVWEEVSGGLDIMKIGNTEMPSRAYVGRFNFKGVDQGKRVGELSGGERGRLHLAKLLQVGGNMLLLDEPTNDLDIETLRALENALLEFPGCAMVISHDRWFLDRIATHILDYQDEGKVEFFEGNFTEYEEYKKRTLGADALEPKRIKYKRIAK
- stoichiometry N: 2
